Results taken from US20220135684A1 (Xencor, published 2022).
Changes are numbered by the printed parent chain. Names may count otherwise. Blank lines part the entries; values can stand above or below the binder they belong to.

Key:
[1] = biological target: T1, cell-surface CD28 on human PBMCs (human, UniProt P10747 19-220); assay: flow cytometry on human PBMCs, anti-human Fc secondary
T1 construct: whole, on cells

human CD28 [2] = biological target: T2, human CD28 (human, UniProt P10747 19-152); assay: Octet (BLI), scFv arm in the bsAb; value told in the text
T2 construct: also called Cluster of Differentiation 28; Tp44

human CD28 [3] = biological target: T2, human CD28; assay: Octet (BLI), scFv arm in a bsAb; value told in the text
human PDL1 antigen = biological target: T3, human PDL1 antigen (human, UniProt Q9NZQ7 19-238); assay: Biacore (SPR), Fab arm in the bsAb; value told in the text
T3 construct: they are put here

B3: XENP37261 (bispecific antibody)
heavy: EVQLLESGGGLVQPGGSLRLSCAASGFTFSSYDMSWVRQAPGKRLEWVSTISSGGSFTHYPDSVKGRFTISRDNSKNTLYLQMNSLRAEDTAVYYCVRRSGDWYFDVWGAGTTVTVSSASTKGPSVFPLAPSSKSTSGGTAALGCLVKDYFPEPVTVSWNSGALTSGVHTFPAVLQSSGLYSLSSVVTVPSSSLGTQTYICNVNHKPSDTKVDKKVEPKSCDKTHTCPPCPAPPVAGPSVFLFPPKPKDTLMISRTPEVTCVVVDVKHEDPEVKFNWYVDGVEVHNAKTKPREEEYNSTYRVVSVLTVLHQDWLNGKEYKCKVSNKALPAPIEKTISKAKGQPREPQVYTLPPSREEMTKNQVSLTCDVSGFYPSDIAVEWESDGQPENNYKTTPPVLDSDGSFFLYSKLTVDKSRWEQGDVFSCSVMHEALHNHYTQKSLSLSPGK
scFv-Fc: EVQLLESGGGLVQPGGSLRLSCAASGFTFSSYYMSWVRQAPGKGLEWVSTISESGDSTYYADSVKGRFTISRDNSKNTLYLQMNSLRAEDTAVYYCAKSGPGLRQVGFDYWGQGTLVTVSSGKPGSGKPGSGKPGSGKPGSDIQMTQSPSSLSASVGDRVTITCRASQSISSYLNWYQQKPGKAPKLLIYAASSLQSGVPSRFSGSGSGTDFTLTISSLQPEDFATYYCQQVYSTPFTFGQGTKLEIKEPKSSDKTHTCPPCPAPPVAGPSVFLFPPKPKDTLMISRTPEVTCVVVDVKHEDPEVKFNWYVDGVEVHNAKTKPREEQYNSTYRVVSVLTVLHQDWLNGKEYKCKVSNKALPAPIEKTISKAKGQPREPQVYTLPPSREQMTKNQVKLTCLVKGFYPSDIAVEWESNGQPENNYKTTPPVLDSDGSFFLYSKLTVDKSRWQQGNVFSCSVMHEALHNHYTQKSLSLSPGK
light: EIVLTQSPGTLSLSPGERATLSCRVSSSISSSNLHWYQQKPGQSPRPLIYGTSNLASGVPVRFSGSGSGTDYTLTISRLEPEDFAVYYCQQWSSYPLYTFGGGTKVEIKRTVAAPSVFIFPPSDEQLKSGTASVVCLLNNFYPREAKVQWKVDNALQSGNSQESVTEQDSKDSTYSLSSTLTLSKADYEKHKVYACEVTHQGLSSPVTKSFNRGEC
notes: 1+1 Fab-scFv-Fc format; also called αPDL1×αCD28 bsAb; 1A7_H1.14_L1.71
Kd (human CD28 [2]): 36 nM
Kd (human CD28 [3]): 37 nM

B4: XENP38514 (bispecific antibody)
heavy: B3 heavy with S31V, G101L
scFv-Fc: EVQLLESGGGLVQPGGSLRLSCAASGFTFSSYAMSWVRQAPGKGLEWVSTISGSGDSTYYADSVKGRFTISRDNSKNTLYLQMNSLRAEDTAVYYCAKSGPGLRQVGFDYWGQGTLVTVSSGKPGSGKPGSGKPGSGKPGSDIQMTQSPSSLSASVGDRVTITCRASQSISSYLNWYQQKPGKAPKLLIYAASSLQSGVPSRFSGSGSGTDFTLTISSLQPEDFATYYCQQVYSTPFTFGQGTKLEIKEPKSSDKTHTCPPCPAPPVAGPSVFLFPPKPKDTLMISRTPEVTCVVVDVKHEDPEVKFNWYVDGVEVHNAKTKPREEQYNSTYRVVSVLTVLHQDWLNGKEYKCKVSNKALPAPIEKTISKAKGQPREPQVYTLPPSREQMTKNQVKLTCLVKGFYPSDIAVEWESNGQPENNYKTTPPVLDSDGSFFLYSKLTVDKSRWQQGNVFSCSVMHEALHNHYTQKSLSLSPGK
light: B3 light with S30Q, S32T, N54V, S57T
Kd (human PDL1 antigen): 0.17 nM

Second part, the binder after the results:

binding result [1]: binds
B1: XENP27181 (antibody, human IgG1, kappa, V domains shown)
VH: QVQLQESGPGLVKPSETLSLTCAVSGFSLTSYGVHWIRQPPGKGLEWLGVIWPGGGTNFNSALMSRLTISEDTSKNQVSLKLSSVTAADTAVYYCARDRAYGNYLYAMDYWGQGTLVTVSS
VL: DIQMTQSPSSLSASVGDRVTITCRASESVEYYVTSLMQWYQQKPGKAPKLLIYAASNVDSGVPSRFSGSGSGTDFTLTISSLQPEDIATYYCQQSRKVPFTFGGGTKVEIKR
notes: Bivalent mAb, IgG1 backbone with E233P/L234V/L235A/G236del/S267K ablation variant; also called HuTN228; prior art anti-CD28 mAb HuTN228; copies: 2 + 2

binding result [1]: binds
B2: XENP28428 (antibody, V domains shown)
VH: EVQLLESGGGLVQPGGSLRLSCAASGFTFSSYAMSWVRQAPGKGLEWVSTISGSGDSTYYADSVKGRFTISRDNSKNTLYLQMNSLRAEDTAVYYCAKSGPGLRQVGFDYWGQGTLVTVSS
VL: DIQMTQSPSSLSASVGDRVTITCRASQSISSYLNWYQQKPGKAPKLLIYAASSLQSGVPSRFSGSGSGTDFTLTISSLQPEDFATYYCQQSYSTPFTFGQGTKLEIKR
notes: Bivalent mAb, IgG1 backbone with E233P/L234V/L235A/G236del/S267K ablation variant; also called anti-CD28 mAb based on clone 1A7; parental αCD28 mAb 1A7; copies: 2 + 2
